Target: human alpha-thrombin (Homo sapiens, UniProt P00734;P00734 P00734:328-363,P00734:364-622)
Test: MST; 100 nM aptamer titrated with 0-16580 nM thrombin; 10% human serum, 1x SSC (150 mM NaCl, 15 mM Na3-citrate, pH 7.2), 5 mM KCl, 1 mM CaCl2, 1 mM MgCl2; IR-laser t

B1: Cy5-labelled thrombin DNA aptamer (ssDNA)
DNA: TGGTTGGTGTGGTTGGT
B1: binds.

— patent publication US20100330578 (published 2010)
